Test results from patent US20110014656A1 (ZymoGenetics, published 2011).
Several values for one entry are separate records, joined by “and”; a condition that tells them apart may be missing. Equal values may be shown once.

Assays:
[1] = target: T1, human IL-17 receptor (IL-17RA) on transfected cells (human, UniProt Q96F46 33-320); assay: cell-based or functional assay
T1 sequence: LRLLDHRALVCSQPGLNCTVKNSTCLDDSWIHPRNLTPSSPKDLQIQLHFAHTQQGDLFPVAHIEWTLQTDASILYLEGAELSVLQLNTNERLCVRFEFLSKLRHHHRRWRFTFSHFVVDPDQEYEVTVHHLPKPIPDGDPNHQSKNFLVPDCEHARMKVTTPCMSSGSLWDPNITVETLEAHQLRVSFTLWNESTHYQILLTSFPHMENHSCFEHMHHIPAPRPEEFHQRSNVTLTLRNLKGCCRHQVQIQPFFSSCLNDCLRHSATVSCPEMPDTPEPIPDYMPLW

[2] = target: T2, human IL-17RC, x1 splice variant, on transfected cells (human, UniProt Q8NAC3 21-791); assay: cell-based or functional assay
T2 sequence: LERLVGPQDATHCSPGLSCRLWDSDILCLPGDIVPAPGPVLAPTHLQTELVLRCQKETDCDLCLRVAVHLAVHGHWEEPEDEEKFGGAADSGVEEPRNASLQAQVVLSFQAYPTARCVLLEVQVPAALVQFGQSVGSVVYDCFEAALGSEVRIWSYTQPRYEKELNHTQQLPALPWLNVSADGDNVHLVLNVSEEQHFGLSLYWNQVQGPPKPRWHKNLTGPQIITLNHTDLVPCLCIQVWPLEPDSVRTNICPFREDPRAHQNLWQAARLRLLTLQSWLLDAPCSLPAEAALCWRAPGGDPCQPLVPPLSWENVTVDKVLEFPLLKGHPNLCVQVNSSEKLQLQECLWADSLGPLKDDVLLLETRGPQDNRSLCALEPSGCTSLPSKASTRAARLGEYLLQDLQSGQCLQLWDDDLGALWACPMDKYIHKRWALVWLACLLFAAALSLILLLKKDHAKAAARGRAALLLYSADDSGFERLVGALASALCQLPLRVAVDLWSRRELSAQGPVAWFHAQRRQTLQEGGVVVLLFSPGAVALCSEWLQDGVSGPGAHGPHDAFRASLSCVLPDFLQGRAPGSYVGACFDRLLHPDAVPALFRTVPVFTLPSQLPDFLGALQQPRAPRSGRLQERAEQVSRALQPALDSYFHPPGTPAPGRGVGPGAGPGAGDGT

[3] = target: T2, human IL-17RC, x1 splice variant, on …; assay: competition, 100x molar cold ligand vs 125I-IL-17F on BHK hIL-17RC cells
Protocol: (§1) Cold competitors were added in 100 fold molar excess. […] Wells were incubated on ice for 1-hour followed by two washes with PBS (Invitrogen 20012-027) and one wash with a high salt solution (1.5M NaCL, 50 mM HEPES pH 7.4). Wells were extracted with 500 ul of 0.8M NaOH for 30 min. at room temperature and counts per minute were measured in a gamma counter (Packard Cobra II A5005).

[4] = target: T2, human IL-17RC, x1 splice variant, on …; assay: saturation binding, 125I-cytokine on BHK cells; high affinity site of a two-site fit
Protocol: as §1
Transfected BHK cells were plated into 24-well dishes as in one. […] Separately, 100 fold molar excess of cold ligand was added at each dilution point. Cells were washed, extracted and counted as in one. Specific counts per minute were plotted against concentration of radiolabeled ligand added by subtracting the 100 fold excess counts from the uncompeted counts at each dilution point. These normalized data were plotted to generate saturation binding curves for each combination of radiolabeled ligand and transfected BHK cells.

[5] = target: T2, human IL-17RC, x1 splice variant, on …; assay: competition, 100x molar cold ligand vs 125I-IL-17A on BHK hIL-17RC cells
Protocol: as §1

[6] = target: T2, human IL-17RC, x1 splice variant, on …; assay: saturation binding, iodinated cytokine on transfected BHK cells

EC50, luciferase in nih3t3/kz142.8/IL-17R cells [1]: 12.4 ng/mL
EC50, luciferase in nih3t3/kz142.8/hcytor14X1 cells [2]: 0.61 ng/mL
fold more potent EC50 in the recombinant line than in the parental line [2]: 17 fold
fold reduction of 125I-IL-17F binding [3]: ~5 fold
Kd [4]: 50 pM and 60 pM and 80 pM
fold reduction of 125I-IL-17A binding [5]: ~7 fold
Kd [6]: 1000 pM
B1: human IL-17F (ligand)
chain: RKIPKVGHTFFQKPESCPPVPGGSMKLDIGIINENQRVSMSRNIESRSTSPWNYTVTWDPNRYPSEVVQAQCRNLGCINAQGKEDISMNSVPIQQETLVVRRKHQGCSVSFQLEKVLVTVGCTCVTPVIHHVQ
notes: also called hIL-17F; hIL17F
